Assay results taken from publication PMC5809584, “Plastic roles of phenylalanine and tyrosine residues of TLS/FUS in complex formation with the G-quadruplexes of telomeric DNA and TERRA”.

Target: RGG3 of TLS/FUS (UniProt P35637 454-526)
Test: NMR CSP; equivalent amount, 50 mM KCl; NMR: 20 mM K-phosphate pH 6.2, 50 mM KCl, 1 mM DTT, 0.1 mM DSS, 5% D2O, 298 K; FA: 20 C (nucleic acids annealed in 20 mM K-phosphate pH 6.2, 50 mM KCl); EMSA: 50 mM Tris-HCl pH 7.5, 100 mM KCl, 0.5 mM EDTA, 0.5 mM DTT, 0.2 mg/mL BSA, 1 ug/mL calf thymus DNA, 20 C
Settings: protein: recombinant; tags: GST removed with PreScission; residual GST-vector residues at N-terminus; G4, heterogeneous

Chain of RGG3 of TLS/FUS (P35637 454-526): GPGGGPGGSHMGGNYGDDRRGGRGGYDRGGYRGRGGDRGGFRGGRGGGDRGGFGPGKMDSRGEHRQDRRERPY

## UUAGGGUUAGGGUUAGGGUUAGGG (structured_RNA) [TERRA24]
  binding result: binds
